Assay [1] concerns the target T1, C-reactive protein (human) (UniProt P02741).
T1 sequence (looked up): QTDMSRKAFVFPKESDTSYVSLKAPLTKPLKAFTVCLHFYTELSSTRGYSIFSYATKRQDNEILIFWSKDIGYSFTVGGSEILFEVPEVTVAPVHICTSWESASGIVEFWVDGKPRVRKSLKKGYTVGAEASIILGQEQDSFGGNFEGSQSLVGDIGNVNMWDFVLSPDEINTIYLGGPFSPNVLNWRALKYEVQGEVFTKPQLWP
The experiment in a line: SPR (Biacore X), Fn 1 mg/mL without inhibitor injected over CRP captured on immobilized anti-CRP antibody, 25 C.

Assay [2] concerns the target T1, C-reactive protein (human). The experiment in a line: SPR, Fn 1 mg/mL in the presence of 50 uM 10-mer injected over antibody-captured CRP. In general terms: In SPR one partner is held on a chip, and binding of the other changes the refractive index at the surface.
Assay [3] addresses T1, C-reactive protein (human). The experiment in a line: SPR, Fn 1 mg/mL in the presence of 50 uM 9-mer injected over antibody-captured CRP.
The target in assay [4] is T1, C-reactive protein (human). The assay can be described thus: SPR, Fn 1 mg/mL in the presence of 50 uM 19-mer injected over antibody-captured CRP.
Assay [5] deals with T1, C-reactive protein (human). The assay can be described thus: SPR, inhibition of Fn (1 mg/mL) binding to antibody-captured CRP at 50 uM peptide.

By % Inhibition is commonly meant the change of the read-out against control, counted positive when it falls.

As to “fibronectin (from UniProt P02751 32-2477)”, the SPR Response (RU) worked out at 118 RU in assay [1], 76 RU in assay [2], 119 RU in assay [3] and 76 RU in assay [4].

B1: 9-mer (SEQ ID NO.: 16) (peptide)
peptide: PRCGNPDVA
Turning to B1, the % Inhibition in assay [5] came out at 0%.

B2: 10-mer (SEQ ID NO.: 12) (peptide)
peptide: NYNFFPRKPK
For B2, in assay [5], the % Inhibition came to 35.6%.

B3: 19-mer (SEQ ID NO.: 11) (peptide)
peptide: PRCGNPDVANYNFFPRKPK
Consider B3, for which the % Inhibition in assay [5] was determined as 35.6%.

For the origin of these results see patent publication US20070134813A1.
